Laboratory results: US20140105889A1 (published 2014)
Where a chain is given by its changes, count along the chain named. In names and notes the source's numbering stands. Values belong to the binder of their own block, whether it stands above or below them.

Assays:
human FcγRIa [1] = target: T1, human FcγRIa (human, UniProt P12314 16-292, limits assumed); test: SPR (Biacore), FcγR over captured antibody; amount bound relative to IL6R-BF648/IL6R-L x100
T1 construct: also called CD64
T1 sequence (P12314 16-292 limits assumed): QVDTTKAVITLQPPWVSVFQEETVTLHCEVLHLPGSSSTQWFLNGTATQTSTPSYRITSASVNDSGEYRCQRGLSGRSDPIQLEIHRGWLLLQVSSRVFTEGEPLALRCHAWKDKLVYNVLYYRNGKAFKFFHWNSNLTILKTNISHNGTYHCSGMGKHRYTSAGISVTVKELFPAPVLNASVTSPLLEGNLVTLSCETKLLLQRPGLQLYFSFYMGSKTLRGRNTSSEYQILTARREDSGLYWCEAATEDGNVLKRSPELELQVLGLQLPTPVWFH

human FcγRIIa type R = target: T2, human FcγRIIa type R (human, UniProt P12318 36-217); test: as above
T2 construct: also called FcγRIIaR; FcγRIIa(R)
T2 chain: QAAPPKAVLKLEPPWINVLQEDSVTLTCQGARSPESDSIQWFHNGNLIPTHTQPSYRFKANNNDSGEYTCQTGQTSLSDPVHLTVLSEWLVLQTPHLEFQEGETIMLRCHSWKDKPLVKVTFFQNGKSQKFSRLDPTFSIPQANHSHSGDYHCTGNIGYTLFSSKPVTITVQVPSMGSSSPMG

human FcγRIIa type H [2] = target: T3, human FcγRIIa type H (human, UniProt P12318 36-217); test: as above
T3 construct: Whole entry named for FcγRIIa allotype H131 (AAH20823.1); also called FcγRIIaH; FcγRIIa(H)
T3 sequence: T2 chain with R133H

human FcγRIIb [3] = target: T4, human FcγRIIb (human, UniProt P31994 43-217); test: as above
T4 construct: also called FcγIIB
T4 sequence: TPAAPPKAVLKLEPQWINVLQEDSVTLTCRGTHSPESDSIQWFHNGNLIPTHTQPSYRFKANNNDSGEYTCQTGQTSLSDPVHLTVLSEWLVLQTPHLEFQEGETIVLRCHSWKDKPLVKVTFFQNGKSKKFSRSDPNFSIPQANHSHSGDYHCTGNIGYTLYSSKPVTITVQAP

human FcγRIIIa type V = target: T5, human FcγRIIIa type V (human, UniProt P08637 17-208, limits assumed); test: as above
T5 construct: also called FcγRIIIaV; FcγRIIIa(V)

human FcγRIa [4] = target: T6, human FcγRIa (human, UniProt P12314 16-292, limits assumed); test: SPR (Biacore); binding amount divided by that of control IL6R-BF648/IL6R-L, x100
T6 construct: also called FcgRIa; CD64
T6 sequence (P12314 16-292 limits assumed): as the sequence (P12314 16-292 limits assumed) above
Protocol: (§1) According to the following method, relative binding activities were calculated for the results of analyzing interactions with the respective FcγRs.

human FcγRIIa type H [5] = target: T7, human FcγRIIa type H (human, UniProt P12318 36-217); test: as above
T7 construct: also called FcgRIIaH; FcγRIIa(H)
T7 sequence: T2 chain with R133H
Protocol: as §1

human FcγRIIb [6] = target: T8, human FcγRIIb (human, UniProt P31994 43-217, limits assumed); test: as above
T8 construct: also called FcgRIIb; FcγIIB
T8 sequence: T4 sequence
Protocol: as §1

T5 sequence (P08637 other isoform, or with tags, fused parts or gaps limits assumed): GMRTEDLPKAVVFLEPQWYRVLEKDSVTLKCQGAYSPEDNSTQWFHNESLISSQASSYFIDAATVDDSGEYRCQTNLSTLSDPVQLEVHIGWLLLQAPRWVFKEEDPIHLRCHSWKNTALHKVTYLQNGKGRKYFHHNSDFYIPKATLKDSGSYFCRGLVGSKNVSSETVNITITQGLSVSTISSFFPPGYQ

B1: IL6R-B3/IL6R-L (antibody, human IgG1)
heavy: not shown
light: DIQMTQSPSSLSASVGDRVTITCRASQDISSYLNWYQQKPGKAPKLLIYYTSRLHSGVPSRFSGSGSGTDFTFTISSLQPEDIATYYCQQGNTLPYTFGQGTKVEIK
notes: IL6R-G1d with K439E (EU numbering); copies: 2 + 2
relative binding (human FcγRIa [1]): 145 relative value (IL6R-BF648/IL6R-L = 100)
relative binding (human FcγRIIa type R): 625 relative value (IL6R-BF648/IL6R-L = 100)
relative binding (human FcγRIIa type H [2]): 1600 relative value (IL6R-BF648/IL6R-L = 100)
relative binding (human FcγRIIb [3]): 58 relative value (IL6R-BF648/IL6R-L = 100)
relative binding (human FcγRIIIa type V): 3260 relative value (IL6R-BF648/IL6R-L = 100)

B6: IL6R-BP136/IL6R-L (antibody, human IgG1)
heavy: QVQLQESGPGLVKPSETLSLTCAVSGHSISHDHAWSWVRQPPGEGLEWIGFISYSGITNYNPSLQGRVTISRDNSKNTLYLQMNSLRAEDTAVYYCARSLARTTAMDYWGEGTLVTVSSASTKGPSVFPLAPSSKSTSGGTAALGCLVKDYFPEPVTVSWNSGALTSGVHTFPAVLQSSGLYSLSSVVTVPSSSLGTQTYICNVNHKPSNTKVDKKVEPKSCDKTHTCPPCPAPELLGGDSVFLFPPKPKDTLMISRTPEVTCVVVDVSHEDPEVKFNWYVDGVEVHNAKTKPREEQYNSTYRVVSVLTVLHQDWLNGKEYKCKVSNAALPAPIEKTISKAKGQPREPQVYTLPPSRDELTKNQVSLTCLVKGFYPSDIAVEWESNGQPENNYKTTPPVLDSDGSFFLYSKLTVDKSRWQQGNVFSCSVMHEALHNHYTQESLSLSP
light: B1 light
notes: copies: 2 + 2
relative binding (human FcγRIa [1]): 117 relative value (IL6R-BF648/IL6R-L = 100)
relative binding (human FcγRIIa type R): 159 relative value (IL6R-BF648/IL6R-L = 100)
relative binding (human FcγRIIa type H [2]): 103 relative value (IL6R-BF648/IL6R-L = 100)
relative binding (human FcγRIIb [3]): 119 relative value (IL6R-BF648/IL6R-L = 100)

B7: IL6R-BP120/IL6R-L (antibody, human IgG1)
heavy: B6 heavy with A328E
light: B1 light
notes: copies: 2 + 2
relative binding (human FcγRIa [1]): 125 relative value (IL6R-BF648/IL6R-L = 100)
relative binding (human FcγRIIa type R): 175 relative value (IL6R-BF648/IL6R-L = 100)
relative binding (human FcγRIIb [3]): 114 relative value (IL6R-BF648/IL6R-L = 100)

B10: IL6R-BP205/IL6R-L (antibody, human IgG1)
heavy: B6 heavy with E235D, P273G, Y298D, A328K, A332R
light: B1 light
notes: The common L chain is IL6R-L; copies: 2 + 2
relative binding activity (human FcγRIa [4]): 97 % of IL6R-BF648/IL6R-L
relative binding activity (human FcγRIIa type H [5]): 108 % of IL6R-BF648/IL6R-L
relative binding activity (human FcγRIIb [6]): 167 % of IL6R-BF648/IL6R-L

The remaining lines, values ahead:

relative binding (human FcγRIa [1]): 116 relative value (IL6R-BF648/IL6R-L = 100)
relative binding (human FcγRIIa type R): 117 relative value (IL6R-BF648/IL6R-L = 100)
relative binding (human FcγRIIa type H [2]): 115 relative value (IL6R-BF648/IL6R-L = 100)
relative binding (human FcγRIIb [3]): 113 relative value (IL6R-BF648/IL6R-L = 100)
relative binding (human FcγRIIIa type V): 122 relative value (IL6R-BF648/IL6R-L = 100)
B2: IL6R-2B171/IL6R-L (antibody, human IgG1)
heavy: B6 heavy with V325L, A328K
light: B1 light
notes: copies: 2 + 2

relative binding (human FcγRIa [1]): 118 relative value (IL6R-BF648/IL6R-L = 100)
relative binding (human FcγRIIa type R): 103 relative value (IL6R-BF648/IL6R-L = 100)
relative binding (human FcγRIIa type H [2]): 147 relative value (IL6R-BF648/IL6R-L = 100)
relative binding (human FcγRIIIa type V): 147 relative value (IL6R-BF648/IL6R-L = 100)
B3: IL6R-2B002/IL6R-L (antibody, human IgG1)
heavy: B6 heavy with E235D, A328K
light: B1 light
notes: copies: 2 + 2

relative binding (human FcγRIa [1]): 73 relative value (IL6R-BF648/IL6R-L = 100)
relative binding (human FcγRIIa type H [2]): 83 relative value (IL6R-BF648/IL6R-L = 100)
relative binding (human FcγRIIb [3]): 104 relative value (IL6R-BF648/IL6R-L = 100)
relative binding (human FcγRIIIa type V): 94 relative value (IL6R-BF648/IL6R-L = 100)
B4: IL6R-2B169/IL6R-L (antibody, human IgG1)
heavy: B6 heavy with V325I, A328K
light: B1 light
notes: copies: 2 + 2

relative binding (human FcγRIIa type R): 101 relative value (IL6R-BF648/IL6R-L = 100)
relative binding (human FcγRIIa type H [2]): 89 relative value (IL6R-BF648/IL6R-L = 100)
relative binding (human FcγRIIIa type V): 91 relative value (IL6R-BF648/IL6R-L = 100)
B5: IL6R-BP078/IL6R-L (antibody, human IgG1)
heavy: B6 heavy with A328K, A332M
light: B1 light
notes: copies: 2 + 2

relative binding (human FcγRIa [1]): 123 relative value (IL6R-BF648/IL6R-L = 100)
relative binding (human FcγRIIa type R): 147 relative value (IL6R-BF648/IL6R-L = 100)
relative binding (human FcγRIIb [3]): 118 relative value (IL6R-BF648/IL6R-L = 100)
relative binding (human FcγRIIIa type V): 129 relative value (IL6R-BF648/IL6R-L = 100)
B8: IL6R-BP107/IL6R-L (antibody, human IgG1)
heavy: B6 heavy with H270E, A328K
light: B1 light
notes: copies: 2 + 2

relative binding activity (human FcγRIa [4]): 57 % of IL6R-BF648/IL6R-L
relative binding activity (human FcγRIIa type H [5]): 279 % of IL6R-BF648/IL6R-L
relative binding activity (human FcγRIIb [6]): 187 % of IL6R-BF648/IL6R-L
B9: IL6R-BP210/IL6R-L (antibody, human IgG1)
heavy: B6 heavy with G239D, H270D, P273G, A328K, A332R
light: B1 light
notes: as for B10
